Measurements as given in patent publication US20260069728A1, “MULTI-TARGETING COMPOUND AND USE THEREOF” (Chengdu Shetai Medical Technology Co., Ltd., priority 2023, published 2026).
Like-named read-outs stand apart in the source and are kept apart here.

How the values were obtained:
[1] = Isoelectric point (PI) measurement; type: physicochemical; conditions: unlabeled compound
[2] = tested on: SUM149PT human breast cancer cell line; experiment: Cell saturation binding assay, SUM149PT; conditions: 68Ga-labeled compound
Experimental: (1) For the cell saturation binding assay, a total of 8 radiolabeled ligand concentrations were set at intervals within the anticipated range. For each concentration, there were 3 groups: the non-inhibition group, the first single inhibition group (FAP single inhibition group), and the second single inhibition group (CXCR4/GRPR/αvβ3 single inhibition group). For each concentration and each group, 3 replicate wells were established.
(2) Cells were plated into a 24-well plate according to the cell plating procedure described above.
(3) The original culture medium was removed from the 24-well plate. Then, 400 μL of 100 mg/mL skimmed milk solution was added to each well for blocking for one hour. After removing the skimmed milk solution, each of wells was washed three times by adding 400 μL of PBS solution. Subsequently, 146 μL of FBS-free medium was added to each well. Next, the non-inhibition group received 4 μL of cold PBS per well, while the first single inhibition group and the second single inhibition group received the following additions per well according to Table 4: 2 μL of non-radiolabeled first single inhibitor solution and 2 μL of cold PBS; 2 μL of non-radiolabeled second single inhibitor solution and 2 μL of cold PBS. The plate was then incubated at room temperature for one hour.
(4) The ligands were radiolabeled with 68Ga using the labeling method described previously. Different volumes of FBS-free medium were added to formulate the radioligand systems at corresponding concentrations. Then, 50 μL of the corresponding concentration of the radioligand system was added to each well.
(5) The supernatant was removed, and the wells were washed three times with 400 μL of PBS. 200 μL of IM NaOH solution was added to each well for cell lysis. […] Each well was washed once with 400 μL of PBS solution, and the washings were sequentially added to the corresponding radioimmunoassay tubes.
(6) Radioactivity in the cells was measured using a γ counter. The equilibrium dissociation constant (KD) was obtained by fitting the curve using nonlinear regression analysis in GraphPad Prism software. KD is the drug concentration that causes half of the maximum effect (50% receptor occupancy).

[3] = Stability of radioligands in PBS buffer (radio-HPLC); type: physicochemical
Experimental: The purpose of this experiment was to test the stability of the radioligands under buffer conditions simulating the physiological environment. This stability is a prerequisite for further animal experiments.
(§1) 1. ^68Ga-SDYD01: ^68Ga-SDYD01 was added to PBS buffer (pH=7.4) and incubated at 37° C. The mixture samples were taken for radio-HPLC analysis after 0.5 hours, 1 hour, and 2 hours of incubation. The stability of ^68Ga-SDYD01 in PBS buffer: the radiochemical purities of ^68Ga-SDYD01 after incubation in PBS for 0.5 hours, 1 hour, and 2 hours were 98%, 97%, and 97%, respectively (FIG. 4).
(§2) 2. ^177Lu-SDYD01: ^177Lu-SDYD01 was added to PBS buffer (pH=7.4) and incubated at 37° C. The mixture samples were taken for radio-HPLC analysis after 24 hours, 48 hours, and 120 hours of incubation. The stability of ^177Lu-SDYD01 in PBS buffer: the radiochemical purities of ^177Lu-SDYD01 after incubation in PBS for 24 hours, 48 hours, and 120 hours were 97%, 96%, and 94%, respectively (FIG. 5).
as §1, with “^68Ga-SDYD02: ^68Ga-SDYD02” for “^68Ga-SDYD01: ^68Ga-SDYD01”, “^68Ga-SDYD02” for “^68Ga-SDYD01”, “96%, 95%” for “98%, 97%,”, “93%,” for “97%,”, “10).” for “4).”
as §2, with “^177Lu-SDYD02: ^177Lu-SDYD02” for “^177Lu-SDYD01: ^177Lu-SDYD01”, “^177Lu-SDYD02” for “^177Lu-SDYD01”, “95%, 91%” for “97%, 96%,”, “87%,” for “94%,”, “11).” for “5).”
as §1, with “1. ^68Ga-SDYD05: ^68Ga-SDYD05” for “1. ^68Ga-SDYD01: ^68Ga-SDYD01”, “of ^68Ga-SDYD05” for “of ^68Ga-SDYD01”, “98%, 96%” for “98%, 97%,”, “and 95%,” for “and 97%,”, “(FIG. 16).” for “(FIG. 4).”
as §2, with “^177Lu-SDYD05: ^177Lu-SDYD05” for “^177Lu-SDYD01: ^177Lu-SDYD01”, “^177Lu-SDYD05” for “^177Lu-SDYD01”, “97%, 96% and” for “97%,”, “96%,” for “96%, and 94%,”, “17).” for “5).”
1. ^68Ga-SDYD06: ^68Ga-SDYD06 was added to PBS buffer (pH=7.4) and incubated at 37° C. The mixture samples were taken for radio-HPLC analysis after 0.5, 1, and 2 hours of incubation. The stability of ^68Ga-SDYD06 in PBS buffer: the radiochemical purities of ^68Ga-SDYD06 after incubation in PBS for 0.5 hours, 1 hour, and 2 hours were 96%, 94% and 93%, respectively (FIG. 22).
2. ^177Lu-SDYD06: ^177Lu-SDYD06 was added to PBS buffer (pH=7.4) and incubated at 37° C. The mixture samples were taken for radio-HPLC analysis after 24 hours, 48 hours, and 120 hours of incubation.
1. ^68Ga-SDYD03: ^68Ga-SDYD03 was added to PBS buffer (pH=7.4) and incubated at 37° C. The mixture samples were taken for radio-HPLC analysis after 0.5 hours, 1 hour, and 2 hours of incubation. The stability of ^68Ga-SDYD03 PBS in PBS buffer: the radiochemical purities of ^68Ga-SDYD03 after incubation in PBS for 0.5 hours, 1 hour, and 2 hours were 96%, 96% and 95%, respectively (FIG. 27).
as §2, with “^177Lu-SDYD03: ^177Lu-SDYD03” for “^177Lu-SDYD01: ^177Lu-SDYD01”, “^177Lu-SDYD03” for “^177Lu-SDYD01”, “are 99%, 96%” for “were 97%, 96%,”, “28). […]” for “5).”

[4] = Small animal PET imaging and biodistribution study; type: in vivo, NSG mice; conditions: NSG, mouse, in vivo, iv, 7.4 MBq, total radioactivity, absolute uptake value in the tumor
Experimental: (§3) Eleven NSG mice bearing subcutaneous xenograft tumors (U87 MG cells), with tumor sizes approximately 150 mm^3, were used. The mice were intravenously injected via the tail vein with approximately 7.4 MBq of ^68Ga-labeled SDYD01, SDYD02, SDYD03. SDYD04, SDYD05, SDYD06, SDYD07, SDYD08 or SDYD07-1 compounds, or with ^[…]-labeled FAPI-04 or FAP2286 compounds as tracers. Micro PET/CT imaging was performed at 30 min, 60 min, and 120 min post-injection. Static images were acquired in 3D mode for 20 minutes. Reconstruction was performed using the OSEM3D/MAP method to obtain attenuation-corrected PET/CT fusion images.
(§4) NSG mice bearing subcutaneous xenograft tumors (U87 MG cells) were divided into 3 groups, with 11 mice in each group. They were intravenously injected via the tail vein with ^68Ga-labeled SDYD01, SDYD02, SDYD03. SDYD04, SDYD05, SDYD06. SDYD07, SDYD08, or SDYD07-1 compounds, or with ^68Ga-labeled FAPI-04 or FAP2286 compounds as tracers. Tumor-bearing mice injected with ^68Ga-labeled compounds SDYD01, SDYD02, SDYD03, SDYD04, SDYD05, SDYD06, FAPI-04, as well as 68Ga-labeled compounds FAPI-04 and FAP2286, were euthanized at 30 min. 60 min, and 120 min, respectively, for each group. Tumor-bearing mice injected with ^68Ga-labeled compounds SDYD07, SDYD08, and SDYD07-1 were euthanized at 30 min, 60 min, and 90 min, respectively, for each group. Blood, tumors, and other major organs and tissues were collected, weighed, and measured for radioactivity. After radioactive decay correction, the standardized uptake value (SUV) and percentage injected dose per gram of tissue (% ID/g) were calculated. In these figures, (a) represents the PET/CT imaging results, (b) represents the biodistribution results, and (c) represents the relative ratios of radioactive uptake in tumor versus normal tissues.

[5] = tested on: subcutaneous xenograft tumors (U87 MG cells); experiment: Small animal PET imaging and biodistribution study; type: in vivo, NSG mice; conditions: mouse, in vivo
Experimental: as §3, §4

**Q.** Which “Main peak's PI” value [1] does the source give for `CCCCCC(=O)N[C@@H]1CSCc2cc(CSCCNC(=O)[C@@H](CCCCNC(=O)CN3CCN(CC(=O)O)CCN(CC(=O)O)CCN(CC(=O)O)CC3)NC(=O)COCCOCCNC(=O)COCCOCCNC(=O)CCN3C(=O)CC(SCCNC(=O)CCC(=O)N[C@@H](CCCNC(=N)N)C(=O)N[C@@H](CCCNC(=N)N)C(=O)N[C@@H](Cc4ccc5ccccc5c4)C(=O)N[C@@H]4CSSC[C@@H](C(=O)N[C@@H](CCCNC(=N)N)C(N)=O)NC(=O)[C@H](CCCNC(N)=O)NC(=O)[C@H](CCCNC(=N)N)NC(=O)[C@H](Cc5ccc(O)cc5)NC(=O)[C@@H]5CCCN5C(=O)[C@H](CCCCN)NC(=O)[C@H](CCCCN)NC(=O)[C@H](CCCNC(N)=O)NC(=O)[C@H](Cc5ccc(O)cc5)NC4=O)C3=O)cc(c2)CSC[C@@H](C(=O)O)NC(=O)[C@H](Cc2ccccc2)NC(=O)[C@H](CCC(N)=O)NC(=O)C([C@@H](C)O)NC(=O)[C@@H]2CCCN2C(=O)[C@@H]2CCCN2C1=O` (stereo partly drawn) [SDYD02] here?
**A.** 11.183

**Q.** What about the “KD values / binding affinity to the receptors (in words)” value [2] of the same compound?
**A.** relatively low KD values

**Q.** And the Kd ([2]; FAPI-04 solution, read-out: KD value, First single inhibition group (FAP single inhibition))?
**A.** 3.35 ± 0.92 nM

**Q.** And the Kd ([2]; T140 solution (CXCR4 inhibitor), read-out: KD value, Second single inhibition group (CXCR4/GRPR/αvβ3 single inhibition))?
**A.** 6.3 ± 0.78 nM

**Q.** What about the Kd ([2]; read-out: KD value, Non-inhibition group) of the same compound?
**A.** 7.11 ± 1.17 nM

**Q.** For `CN1C(=O)[C@@H](Cc2ccc(O)cc2)NC(=O)CNC(=O)[C@H](Cc2ccc3ccccc3c2)NC(=O)[C@H](CCCNC(=N)N)NC(=O)[C@H]1CCCNC(=O)c1ccc(CNC(=O)[C@H](CCCCNC(=O)CN2CCN(CC(=O)O)CCN(CC(=O)O)CCN(CC(=O)O)CC2)NC(=O)CCC(=O)NCCOCCOCC(=O)NCCOCCOCC(=O)N2CCN(CCCOc3ccc4nccc(C(=O)NCC(=O)N5CC(F)(F)C[C@H]5C#N)c4c3)CC2)cc1` [^68Ga-SDYD05, metal not drawn], which “stability in PBS buffer (in words)” value [3] is on record?
**A.** quite stable in PBS buffer

**Q.** And the tissue uptake at 0.5 h [4]?
**A.** ≥ 10 %ID/g

**Q.** And the tissue uptake at 1 h [4]?
**A.** ≥ 10 %ID/g

**Q.** What about the “radioactive uptake in the tumor sites (in words)” value [5] of the same compound?
**A.** significant radioactive uptake in the tumor sites
